Experimental data taken from patent publication CN114958811A.

Biological target: RBD-His (近岸生物 货号 DRA42) (SARS-CoV-2) (UniProt P0DTC2)

In the case of “hACE2-Fc融合蛋白 (fusion of the human ACE2 extracellular domain with the Fc fragment of human IgG1) (Fc fusion)”, the 亲和力 is reported as 0.54 nM.
